The results in this text go back to publication PMC9276737.

Common to all, as to details: 2 nM 32P-labelled DNA; binding buffer, salt, pH and temperature only by reference (refs 50, 51); native 6% polyacrylamide gel for EMSA
The target in data set [1] is T1, PclR-His (Streptococcus pneumoniae R6) (UniProt Q8DP24).
T1 sequence: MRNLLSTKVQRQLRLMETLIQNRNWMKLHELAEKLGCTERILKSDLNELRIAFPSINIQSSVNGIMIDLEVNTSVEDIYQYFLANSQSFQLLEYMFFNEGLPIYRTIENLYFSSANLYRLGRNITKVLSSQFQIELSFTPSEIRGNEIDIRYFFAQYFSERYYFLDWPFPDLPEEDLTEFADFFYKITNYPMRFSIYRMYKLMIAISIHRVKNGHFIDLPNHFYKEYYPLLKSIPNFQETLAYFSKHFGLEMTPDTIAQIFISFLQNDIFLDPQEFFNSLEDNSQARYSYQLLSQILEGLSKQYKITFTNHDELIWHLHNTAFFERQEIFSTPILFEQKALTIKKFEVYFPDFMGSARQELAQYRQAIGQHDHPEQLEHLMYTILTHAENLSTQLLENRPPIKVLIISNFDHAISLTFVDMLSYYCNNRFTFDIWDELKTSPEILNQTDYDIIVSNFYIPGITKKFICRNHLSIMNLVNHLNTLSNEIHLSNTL
Kind of data set: DNase I footprinting.

Data set [2] deals with T2, MgaSpn-His (Streptococcus pneumoniae R6) (UniProt Q8DNN5).
T2 sequence: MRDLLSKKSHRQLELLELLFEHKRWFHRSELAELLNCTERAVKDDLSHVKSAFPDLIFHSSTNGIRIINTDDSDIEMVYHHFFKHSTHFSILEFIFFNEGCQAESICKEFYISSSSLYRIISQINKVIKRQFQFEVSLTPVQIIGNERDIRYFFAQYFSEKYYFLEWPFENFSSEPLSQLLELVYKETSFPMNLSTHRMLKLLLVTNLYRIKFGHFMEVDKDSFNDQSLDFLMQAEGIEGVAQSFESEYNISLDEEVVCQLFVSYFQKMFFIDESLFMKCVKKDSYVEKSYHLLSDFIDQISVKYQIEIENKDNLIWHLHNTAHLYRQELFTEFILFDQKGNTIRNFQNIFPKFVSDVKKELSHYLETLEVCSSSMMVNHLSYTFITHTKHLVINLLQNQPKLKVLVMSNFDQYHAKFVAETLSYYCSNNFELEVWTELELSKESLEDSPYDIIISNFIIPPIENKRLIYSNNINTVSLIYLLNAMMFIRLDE
Put plainly: DNase I footprinting.

Data set [3] has as its target T2, MgaSpn-His (Streptococcus pneumoniae R6). Kind of data set: EMSA.
Data set [4] has as its target T1, PclR-His (Streptococcus pneumoniae R6). Put plainly: EMSA.

Turning to “CAAATTCTTTAATTGTTGCTATTATATAATTTTTAAAATTAAAAATATAATCTTTAGACTTGAATTTGATTCTGTATTCACGCCCTCAATAGACGGTAAAATAAGAAAATTGTTTATATATTGTCTCCGTAGTGTTATTATACGAAATAAAAGATTTTAGGAAAAGTCGTTATATCATGCTATACCTATTCTTTGTGGTATAATTGCAAGAGGTTTAATCCG (double strand) [222-bp P1623B promoter fragment]”, the binding entry in data set [1] is reported as “no binding”.
Turning to “CGGCTAGTTCATGTAATTTCATCCAATTACGATTCTGAATTAGGGTTTCCATTAAGCGTAATTGTCTTTGAACTTTTGTGGATAAAAGGTTTCTCATACGGGTATTTCCTCCATAATTCATTATATCTTTTTTTGTCTAAGTAGTATAAAAAAATTAGAGCAAGAAAATTGTCGTTAGTAATCGGAAAAATTAGAATAATATAAGTGGCTTTTAAGTGCAAAAACAGAATATATTAATTGTTCAGAAAATATTGATTAATGCCTCAAATAGTTGTACATTG (double strand) [281-bp PpclA promoter fragment]”, the binding entry in data set [2] and in data set [1] was “binds” in each case.
For the sequence “CTCCTAGATAGTATTTTATAGTTTACAATGTACAACTATTTGAGGCATTAATCAATATTTTCTGAACAATTAATATATTCTGTTTTTGCACTTAAAAGCCACTTATATTATTCTAATTTTTCCGATTACTAACGACAATTTTCTTGCTCTAATTTTTTTATACTACTTAGACAAAAAAAGATATAATGAATTATGGAGGAAATACCCGTATGAGAAACCTTTTATCCACAAAAGTTCAAAGACAATTACGCTTAATGGAAACCCTAATTC (double strand) [270-bp PpclA promoter fragment]”, the binding entry in data set [3], in data set [4], in data set [2] and in data set [1] was “binds” throughout.
